According to PMC3303827:

Key:
[1] = molecular target: U266 derived IgE λ light chain (dimer) (human (endogenous in U266)); test: ESI-Qq-TOF mass spectrometry; nano-spray; sample in 25 mM PBS pH 7.4; spectra deconvoluted by MaxEnt
[2] = molecular target: U266 derived IgE λ light chain (dimer) (human (endogenous in U266)); test: ESI-Qq-TOF mass spectrometry; nano-spray; sample in 20 mM HCl pH 2.0 (methods say pH 2.7); spectra deconvoluted by MaxEnt
[3] = molecular target: U266 derived IgE λ light chain (dimer) (human (endogenous in U266)); test: SEC; Superdex 75 10/300 GL; 1 g/L light chain in 20 mM HCl pH 2.0; mobile phase 100 mM Na2SO4, 25 mM Na2HPO4 pH 7.4; calibrated with BSA, chymotrypsinogen A, lysozyme
[4] = molecular target: U266 derived IgE λ light chain (dimer) (human (endogenous in U266)); test: SEC; Superdex 75 10/300 GL; 1 g/L light chain in 25 mM PBS pH 7.4; mobile phase 100 mM Na2SO4, 25 mM Na2HPO4 pH 7.4; calibrated with BSA, chymotrypsinogen A, lysozyme

stoichiometry N [1]: 2
stoichiometry N [2]: 2
stoichiometry N [3]: 2
stoichiometry N [4]: 2
Substance: U266 derived IgE λ light chain (dimer) (natural protein)
